Assay results: the DeepSol protein solubility set

Assay: soluble on expression in E. coli; label from the status in PepcDB or PDB records

Sequence	soluble on expression in E. coli
MPKNRGVLDAITRSVIDGSDQESSSSFNSDKEYAAVTKGLSSSRVQKKSSLRQMKSKVKELQSLVNHYRENEAALVSSAKLLSGEIIGYEIKMASLHGKMKSILDENNALKETHKSSAEKRIELVRLPSSKEERNYDEYTLLVNLKKEICAKLQDYKNVQNTVNTKLDEIHTFHEKYYEGLELSLDSKVFDAESSKELAKVRRELNNVRKNSEIKVNNLKMQLLQATKSLEHLKKQAKAKDDYLKCIPELVDKANLTMLSYKKSIANQRETIEALQAELSQQSETKGQIETETQNQVQIPTNVTLVDPFEENNPEDLFAIQEQELQDLRLHKKMADERSRTTHLHLERKNNTIKLLQSYVQSLIQRLPPAQRKHHLGIFQKLGSEKSCPLAPAVASTYAPLLLLSQHSNHQEIDNTPQRLLLAAPDGQSYSEKSTTLNLDYSSRKSYLSRLQPPHIANLKSLTLKTLPRVPTDSPQLPSKDKSQETAKKDDRPKLVANEPVTLDTSTPPVAQSLADSKHCSGLHK	not soluble
ASMTGGQQMGRGSGSEFMENETHYAEAVIDNGAFGTRTIRFETGRLARQAAGSAVAYLDDDTMVLSATTASKNPKDQLDFFPLTVDVEERMYAAGKIPGSFFRREGRPSEDAILTCRLIDRPLRPSFKKGLRNEIQVVATIMALNPDHLYDVVAINAASASTQLAGLPFSGPIGGVRVALIRGQWVAFPTHTELEDAVFDMVVAGRVLEDGDVAIMMVEAEATEKTIQLVKDGAEAPTEEVVAAGLDAAKPFIKVLCKAQADLAAKAAKPTGEFPVFLDYQDDVLEALSAAVRPELSAALTIAGKQDREAELDRVKALAAEKLLPEFEGREKEISAAYRALTKSLVRERVIAEKKRIDGRGVTDIRTLAAEVEAIPRVHGSALFERGETQILGVTTLNMLRMEQQLDTLSPVTRKRYMHNYNFPPYSVGETGRVGSPKRREIGHGALAERAIVPVLPTREEFPYAIRQVSEALGSNGSTSMGSVCASTMSLLNAGVPLKAPVAGIAMGLISQEINGETHYVALTDILGAEDAFGDMDFKVAGTKEFVTALQLDTKLDGIPASVLAAALKQARDARLHILDVMMEAIDTPDEMSPNAPRIITVKIPVDKIGEVIGPKRQMINQIQEDTGAEITIEDDGTIYIGAADGPAAEAARATINGIANPTSPEVGERILGSVVKTTTFGAFVSLLPGKDGLLHISQIRKLAGGKRVENVEDVLGVGQKVQVEIAEIDSRGKLSLIPVIEGEEAASDEKKDDAEQ	soluble
MSLDLSASRSDGGDPLRPASPRLRSPVSDGGDPLRPASPRLRSPVSDGGDPLRPASPRLRSPLGASRPVVGLTAYLEQVRTGVWDIPAGYLPADYFEGITMAGGVAVLLPPQPVDPESVGCVLDSLHALVITGGYDLDPAAYGQEPHPATDHPRPGRDAWEFALLRGALQRGMPVLGICRGTQVLNVALGGTLHQHLPDILGHSGHRAGNGVFTRLPVHTASGTRLAELIGESADVPCYHHQAIDQVGEGLVVSAVDVDGVIEALELPGDTFVLAVQWHPEKSLDDLRLFKALVDAASGYAGRQSQAEPREGGSHHHHHH	soluble
WSAEDKHKEGVNSHLWIVNRAIDIMSRNTTLVKQDRVAQLNEWRTELENGIYAANYENPYYDNSTFASHFYDPDNGKTYIPFAKQAKETGAKYFKLAGESYKNKDMKQAFFYLGLSLHYLGDVNQPMHAANFTNLSYPQGFHSKYENFVDTIKDNYKVTDGNGYWNWKGTNPEEWIHGAAVVAKQDYSGIVNDNTKDWFVKAAVSQEYADKWRAEVTPMTGKRLMDAQRVTAGYIQLWFDTYGDR	soluble
MSLKIAVTGGTGFLGQYVVESIKNDGNTPIILTRSIGNKAINDYEYRVSDYTLEDLINQLNDVDAVVHLAATRGSQGKISEFHDNEILTQNLYDACYENNISNIVYASTISAYSDETSLPWNEKELPLPDLMYGVSKLACEHIGNIYSRKKGLCIKNLRFAHLYGFNEKNNYMINRFFRQAFHGEQLTLHANSVAKREFLYAKDAAKSVIYALKQEKVSGTFNIGSGDALTNYEVANTINNAFGNKDNLLVKNPNANEGIHSSYMDSSKAKELLDFSTDYNFATAVEEIHLLMRGLDDVPLWYEGHHHHHH	soluble
LPDGIEEVLPPEAARIEVARRQVLDLFQSWGYEFVVTPHIEYLESLLTGAGSDLDLRTFKVIDPQSGRQMGFRADITPQVARIDAHTLKREGPSRLCYAGSVLHAQPRALSSSRSPIQLGAELYGDASPSSDVEVISLMLAMLQLADVPDVHMDLGHVGIYRGLARAAGLSGEVEQQLFDALQRKAIDEVVALTANLPPELASMLRALVDLCGGREVLDAARDRLAGAPAPVLEALDDLLAIADRLAARFPQLPLYFDLGELRGYHYHTGVVFAVFVPGVGQSIAQGGRYDDIGADFGRARPATGFSTDLKTLVTLGQAEIVL	not soluble
MGSDKIHHHHHHGILKERKLAKKRDEVQRYVLMAADVNLGQGNEFREIFAKSVKPLLINLDTGKVDSDANVLDFDERMAAINPETSSTPKKDIAKIKTRANDARVFKVFDDSGKLSSVVVPFYGKGLWSMIYGYVAVEPDFNTIKGLVVYEHGETPGIGDFVTDPAWLNQWKNKQLFDEKGKFAIRLVKGGVKEGDVHGVDAVSGATMTGRGVQRAMEFWFGVEGFQTFFNQLKTSAVQGEFGGEK	not soluble
MGSDKIHHHHHHMISTEYRPKSLLEEFVVCFYFNKSDNFEYADYANPTTNQEMFFNLGDDFELKNSIGQVTSQRSWISGLQSKSLPIKCSGRHITAGVIFKPWGLYAAFGINAKELANKTIYSKWLCDLSNELDNSEFSESQFFDLMEFNLLKSIKRSKMTKVMQKIVNEIEQENVFTLSEKLNRSKKTIIESFNKMIGLSPHKFYTLKCICETITLLQNNPTIKLTELAYNQGFYDQAHFIRVFKEHTGLTPKEFRNSIMKR	not soluble
MAEEKFFLGRQPILDREQRLYGFELLFRSADSLHANVTDYLQASASVIFDALSSFGFREILGKHKGFINVNADVLMSEALELLPPEKVVIELLEHVPITETVISRCHELREKGFSLALDDHIYEPVYEPLYHLVDVIKVDLFRTGMENLASEVETLRKWNTKLLAEKVETVEQYERCADLGFTYFQGYYFARP	not soluble
MKVLDLIDKYYPQDNELKHILNVHSRSVADKALWIAGKHPELNLDTVFLEEAAMLHDIGIFLTHAPGIQCFGTEPYICHGYLGAGLVRKEGFPRHALVCERHTGAGLSLKDIMDQKLPVPHREMLPVSMEEQVICFADKFFSKTHLDREKTVEGARKSIAKYGDEGLQRFNNWCKLFL	not soluble
MIPEEIYKILRKQRYQIDGHTAVKLCGWVRKKMLEDKNCYKSKFYGIETHRCIQCTPSVIWCQQNCIFCWRVLPRDIGIDISQIKEPKWEEPEVVYEKILAMHKRIIMGYAGVLDRVGEKKFKEALEPKHVAISLSGEPTLYPYLDELIKIFHKNGFTTFVVSNGILTDVIEKIEPTQLYISLDAYDLDSYRRICGGKKEYWESILNTLDILKEKKRTCIRTTLIRGYNDDILKFVELYERADVHFIELKSYMHVGYSQKRLKKEDMLQHDEILKLAKMLDENSSYKLIDDSEDSRVALLQNENRKINPKL	soluble
GKVGDRPIEQQLALGYIKALTEHDYQTLSKYYNRDSVFYDKTADTKYIGTRSIIAFLQRSHEGVLEFDFNIEHMFNTGPLVVMIGNYHLRGPGEQFGKPGKIIDIAIPGVTTLKFDPNTQRLTEQVDLMDYQTMSDQLQSQ	soluble
MPIVNVKWQKEKYVVEVDTSAPPMVFKAQLFALTQVVPERQKVVIMGRTLGDDDWEGITIKENMTIMMMGSVGEIPKPPTVLEKKQANRDKQAEEISALYPCGLANLGNTCYFNSCVQMLKEVNELVLKPAEEMRIREHNDRLCHNLATLFNSLRDKDRALRSKGEPIKPFAAILTLSDSFPQFEKFKQQDANECLVSIMSNVTRIYGLSGWNIESLFRIQTETTMKCLESDEVSEKKVERNNQLTCYVNQDVRFLQTGIKAGFEEEMTRNSEELNRDAKWQKNTQISRLPKYLTVNINRFFYKESTKTNAKILKSVQFPMQLDTYDLCSQELKDKLVARRADIKLEEDAKLERELRKKVLDKEQGDKIFDDGVALPTAFEDDAGSNNSGFYDLKGIITHKGRSSQDGHYVAWMRSSEDGKWRLFDDEHVTVVDEEAILKTSGGGDWHSAYVLLYEARVIKQFPELPPAPVPTEVAADTAEPMEVSEKQ	not soluble
MSQSDEASVAEPTVVVATPVAVAVTAPATHPRKPPALVISTIACPTIYEQAPSKPASPTMPLSPYEGITADLMQRIQLFSSQFDHARLSPNYATSDLGSSARSSFSSTTSSFLTYRDRSVDFDEAGKELISPFDCDTNCSGTPYSLSTNSGNHFSFEARSVSSLGHSTAHFNQLLAAGAAYELSRERSRSESDMQPTQEDDVRHLNTSTISVPIYAKKPLHKFGGEIKRSSSTPPPTSDEREQVEQRLLLRPSSGMEIKKDLETTNSFVSSWAREQIFAMQNATMYNLLTARSAEDCSTISTPGPLKVFPRSKDDMTFAPRDDSSRAKQMQYPCTLCGQAFAVHDRLAKHIASRHRQRSCTLDDASKVHKCNMCSKSFSRSDMLTRHMRLHTGAKPYSCPTCNQVFSRSDHLSTHLRTHTGEKPYACPMCNYSASRRDMISRHMRTHSLTDDSSISTPISQLSIRSATTSPLPPKIGSTATVEIGSGLLSAFKPILSASSSNLLSVSSPFQSLSLSTPPSPSFAPIVLNRQLSFDVTMRNTTS	soluble
MNNKRTKGENVYQLVQKRLKFLFNEFDNIYVSFSGGKDSGVLLNLCIQYIREHNLDRKIGVYHMDYEAQYQMTTEYVEQTFRENQDILEIYHVCVPFKVVTCASMFQTYWRPWDESMHAHWVRPMPKNCYKKEDFPFYNEEMWDYTFQTSFASWYHKKHDAVRTCCLVGIRTQESLDRWRTIHGNNRLNSYHNLMWTRRLGYDLYNAYPIYDWTTEDIWTAYARFKWPFNQMYELYYK	not soluble
MGSDKIHHHHHHMLSKLWKRQAPQMVGIDIGSHEIKAILLSKTADGYKIQNHASVPVRKGAVVDHDIRDTEAVIESLRQIRRGLPKSLKFAAVAVSGSAVMTKVIYMDAALNEEEMEAQIEIEADNLIPYSLDEVSIDFERLNPNITDPTKVNVLLSACRTENIDSRVDSLDAIELDVKVVDVEAYALGRSAELIYAQLPDGAKAKSIAMVDIGANMTTFSVVENGDTTFIREQAFGGELFTQSIVSFYGMPHDEAERAKISGQLPRNYMFEVLSPFQMQLLQQIKRTLQIYCTASGREKVDYIVLCGGTAKLEGMVELLTNELGTHTIVADPFQGCLHADDVMKGQLQPNISKYMVACGLALRSYAQWRT	not soluble
MGSDKIHHHHHHMPRVIKHPEIRREDILDHAQALFLTQGYDRASLNDVIASAGISKGAFYHYFASKEALLEALADRFARQALAGVQGVVDDPGLDPLGRLNGLLSQSRQAKIETAAEAWALFETMFRPENLVLFHRINLAANASFSPLLVKIIRQGVEDGTFRTFDPEGVADIVMQFGLATHDVVAKAIAGGSDADMEVAIEVLEKRVRLYEIALDRILGLPDGSIRIGEPGYIRAVMTARRKADKAR	not soluble
MKYISPGFVDAHSHIGMIPDGLEWEFQEANDFYSPIAPHLRAVDGFDPYDEAFKEAIAGGVTTVATGPGSANVMGGIGLLAKTYEEGFEKIIKPEAFIKMALGPKRPREYKSKYPYPTTRMGTVALMRTWFKRAREFMEGKIKTDNIDEEEIEMLRLLARALKREIQVKIHLSTSPDEIYAAIRIIKEFNLNATIDHAFGSQLVADMLSREGIPVIYGPPMITRIASFFRYVDDKAPVLLFKKGVNVSIMTDHPVLPEKHLRLLAAVVARNGLSLDDALKLITINPAKALGIDRFVGSLEHHHHHH	not soluble
MPNRKVVKFFFDVISPYSYFGFEGITRHRSVWKTPIQMKPFFFAGVVRHTENPGLPLRIPIKEKYMHKDLLFSAQYWGIPFRLPKDYTNMMLNTSSIVPQRILVASQLRDNVLMEDVARGLWHRFYAYGKPIFTKSQVAEVLRDLHVKDVDELVMMSDSAEVKNILRENTDEAIGNGCFGAPWMHITDGHGKVLQTVFGSDRLPQVADFLAEPFKGPMREKKPNA	not soluble
